Test: yeast display, Sf9 membrane polyspecificity reagent, FACS + sequencing; frameworks hold sequencing errors
Outline: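 Polyreactivity labels are assigned by the sorting gate from which each nanobody was recovered. The gates were low and high (top ~1%), set on anti-HA fluorescence for expression and streptavidin fluorescence for reagent binding. Before sorting, galactose-induced (36–48 hours) yeast display cells were stained for 1 hour at 4 °C with 10% biotinylated, detergent-solubilized Sf9 membrane reagent.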

| Sequence | polyreactivity (PSR sort gate) |
| --- | --- |
| QVQLVESGGGLVQAGGSLRLSCAASGRTFRPYAMGWYRPAPGKERELVAAITGGTRTYYADSVKGRFTISRDNAKNTVYLQMNSLKPEDTAVYYCAKGDFFSKHDYWGQGTQVTVSS | low polyreactivity |
| QVQLVESGGGLVQAGGSLRLSCAASGRTFRPYAMGWYRQAPGKERELVAAISSRGSSTYYADSVKGRFTISRDNAKNTVYLQMNSLKPEDTAVYYCAARSYWGGLRYDYWGQGTQVTVSS | high polyreactivity |
| QVQLVESGGGLVQAGGSLRLSCAASGRTFRPYAMGWYRQAPGKERELVAAITSGVSTYYADSVKGRFTISRDNAKNTVYLQMNSLKPEDTAVYYCARGYLRSYRWSYTTRMGYWVQGTQVTVSS | high polyreactivity |
| QVQLVESGGGLVQAGGSLRLSCAASGRTFRPYAMGWYRQAPGKERELVARITSGGGRTYYADSVKGRFTISRDNAKNTVYLQMNSLKPEDTAVYYCNKAIYSLYRDGYTNFDYWGQGTQVTVSS | high polyreactivity |
| QVQLVESGGGLVQAGGSLRLSCAASGRTFRPYAMGWYRQAPGKERELVAVISYRGGSTYYADSVKGRFTISRDNAKNTVYLQMNSLKPEDTAVYYCNAQAGWFSRLYYWGQGTQVTVSS | high polyreactivity |
| QVQLVESGGGLVQAGGSLRLSCAASGRTFRPYTMGWYRQAPGKERELVAAISASGGRTYYADSVKGRFTISRDNAKNTVYLQMNSLKPEDTAVYYCAARVRDSLVYGGWDDYWGQGTQVTVSS | high polyreactivity |
| QVQLVESGGGLVQAGGSLRLSCAASGRTFRQNVMGWYRQAPGKERELVAAITASGGNTYYADSVKGRFTISRDNAKNTVYLQMNSLKPEDTAVYYCNAVPYLAMDYWGQGTQVTVSS | high polyreactivity |
| QVQLVESGGGLVQAGGSLRLSCAASGRTFRRNAMGWYREAPGKERELVASINRGGGKNYADSVKGRFTISRDNAKNTVYLQMNSLKPEDTAVYYCAAVPIAADKANGYDYWGQGTQVTVSS | low polyreactivity |
| QVQLVESGGGLVQAGGSLRLSCAASGRTFRRNVMGWYRQAPGKERELVAAISSGANTNYADSVKGRFTISRDNAKNTVYLQMNSLKPEDTAVYYCAAGEGWRSRTFDYWGQGTQVTVSS | low polyreactivity |
| QVQLVESGGGLVQAGGSLRLSCAASGRTFRRTAMGWYRQAPGKERELVAAISSRGGSTYYADSVKWRFTISRDNAKNTVYLQMNSLKPEDTAVYYCNRVLTPIWYYVPLYSQPTYYYWGQGTQVTVSS | high polyreactivity |
| QVQLVESGGGLVQAGGSLRLSCAASGRTFRRYAKGWYRQAPGKERELVATIRSGDNTNYADSVKGRFTISRDNAKNTVYLQMNSLKPEDTAVYYCNRSPKSGQVTYLYSVNAHYDYWGQGTQVSVSS | low polyreactivity |
| QVQLVESGGGLVQAGGSLRLSCAASGRTFRRYAMGWYRQAPGKERELVAAITWGAGSTRYADSVKGRFTISRDNAKNTVYLQMNSLKPEDTAVYYCAAENTRAYGMYYWGQGTQVTVSS | high polyreactivity |
| QVQLVESGGGLVQAGGSLRLSCAASGRTFRRYAMGWYRQAPGKERELVASISRTGGSTYYADSVKGRFTISRDNSKNTVYLQMNSLKPEDTAVFYCNAGPSVGWYNYWGQGTQVTVSS | high polyreactivity |
| QVQLVESGGGLVQAGGSLRLSCAASGRTFRRYNMGWYRQAPGKERELVAAITTSGGSTYYSDSVKGRFTISRDNAKNTVYLQMNSLIPEDTAVYYCAATRRYSGDYWGQGTQVSVSS | high polyreactivity |
| QVQLVESGGGLVQAGGSLRLSCAASGRTFRRYTMGWYRQAPGKERELVATISKTGGSTYYADSVKGRFTISRDNAKNTVYLQMNSLKPEDTAVYYCAARSVALFIMYYWGQGTQVTVSS | high polyreactivity |
| QVQLVESGGGLVQAGGSLRLSCAASGRTFRRYVMGWYRQAPGKERELVAAIRWTGGSTYYADSVKGRFTISRDNAKNTVYLQMNSLKPEDTAVYYCAASSYIGYGYLGQGTQVTVSS | high polyreactivity |
| QVQLVESGGGLVQAGGSLRLSCAASGRTFRRYVMGWYRQAPGKERELVAAISYSGATTYYADSVKGRFTISRDNAKNTVYLQMNSLKPEDTAVYYCAATAPGDRYYWGQGTQVTVSS | high polyreactivity |
| QVQLVESGGGLVQAGGSLRLSCAASGRTFRSIAMGWYRKAPGKERELVAAITSSGGRTYYADSVKGRFTISRDNAKNTVYVQMNSLTPEDTAVYYCNAGRQHPPRYSSYDYWGQGTQVTVSS | high polyreactivity |
| QVQLVESGGGLVQAGGSLRLSCAASGRTFRSNAMGWYRQAPGKEREFVAAISSGGSTKYADSVKGRFTISRDNAKNTVYLQMNSLKPEDTAVYYCAAVSHSRYWGEGTQVTVSS | high polyreactivity |
| QVQLVESGGGLVQAGGSLRLSCAASGRTFRSNTMGWYRQAPGKEREFVAVITYSAGSTYYADSVKGRFTISRDNAKNTVYLQMNSLKPEDTAVYYCAATSKYRGDYWGQGTQVTVSS | high polyreactivity |
| QVQLVESGGGLVQAGGSLRLSCAASGRTFRSYAMGWYRQAPGKERELVAAISSGGSTNYADSVKGRFTISRDNAKNTVYLQMNSLKPEDTAVYYCNKVVHSFRFPYRYDMDYWGQGTQVTVSS | high polyreactivity |
| QVQLVESGGGLVQAGGSLRLSCAASGRTFRSYAMGWYRQAPGKERELVVAISLSGGSTYYADSVKGRFTISRDNAKNTVYLQMNSLKPVDTAVYYCNADLIKGTYRWYEGGSQYGYWGQGTQVTVSS | low polyreactivity |

| Sequence | polyreactivity (PSR sort gate) |
| --- | --- |
| QVQLVESGGGLVQAGGSLRLSCAASGRTFRSYDMGWYRQAPGKERELVAAISEDGGYTYYADSVKGRFTISRDNAKNSVYLQMNSVKPEDTAVYYCAKDRPGPLRWWFLYGYWGQGTQVTVSS | low polyreactivity |
| QVQLVESGGGLVQAGGSLRLSCAASGRTFRTNAMGWYRQAPGKERELVAAITSDGTYYADSVKGRFTISRDNAKKTVYLQMNSLKPEDTAVYYCNVDDRETRDDYWGQGTQVTVSS | low polyreactivity |
| QVQLVESGGGLVQAGGSLRLSCAASGRTFRTNVMGGYIQAPGKERELVADISKRGGSTYYADSVKGRFTISRDNAMNTVYVQINSQKPDDTAVYYCAADYSPYYYHQGDYWGQGTQVTVSS | high polyreactivity |
| QVQLVESGGGLVQAGGSLRLSCAASGRTFRTNVMGWYRQAPGKERELVAAISKRGGSTYYADSVKGRFTISRDNAKYTVYLQMNILNPEDTAGYYCAAVFSPYYDHQGDYWGQGTQVTVSS | high polyreactivity |
| QVQLVESGGGLVQAGGSLRLSCAASGRTFRTYAMGWYRQAPGKERELVAAITSRAGSTYYADSVKGRFTISRDNAKNSVYLQMNSLKPEDTAVYYCAKQYYYGWYWGEDYWGQGTQVTVSS | low polyreactivity |
| QVQLVESGGGLVQAGGSLRLSCAASGRTFRVNAMGWYRQAPGKERELVASITYSGGSTYYADSVKGRFTISRDNAKNTVYLQMNSLKQEDTAVYYCAADWYRSPYDYWGQGTQVTVSS | low polyreactivity |
| QVQLVESGGGLVQAGGSLRLSCAASGRTFRVNTMGWYRQAPGQEWELVAAITSSDRTYYADSVKGRFTISRDNAKNTVYLQMNSLKPDDTAVYYCAAYSEYYGVYYWGQGTQVTVSS | low polyreactivity |
| QVQLVESGGGLVQAGGSLRLSCAASGRTFRVYAMGWYRQAPGKERELVAAIRSGGNTNYADSVKGRFTISRDNAKNTVYLQMNSLKPEDTAVYYCAATTYVVASRYVGTLGDDYWGQGTQVTVSS | high polyreactivity |
| QVQLVESGGGLVQAGGSLRLSCAASGRTFRVYAMGWYRQAPGKERELVATITSSGGSTYYADSVKGRFTISRDNAKNTVYLQMNSLKPEDTAVYYCNVSVYYNYDSSYYYWGQGTQVTVSS | low polyreactivity |
| QVQLVESGGGLVQAGGSLRLSCAASGRTFRVYTMGWYRQAPGKERELVAVISGRGGSTSYADSVKGRFTISRDNAKNTVDLQMNSLKPEDTAVYYCAARGRAHWHYDYWGQGTQVTVSS | high polyreactivity |
| QVQLVESGGGLVQAGGSLRLSCAASGRTFRYKAMGWYRQAPGKERELVAAITYSGGITYYADSVKGRFTISRDNAKNTVYLQMNSLKPEDTAVYYCAADDPYRTTYEYDYWGQGTQVTVSS | low polyreactivity |
| QVQLVESGGGLVQAGGSLRLSCAASGRTFRYNAKGSYIQAPGKERELVAAINWNGGSTYYADSVKGSFTISRDNAKNTVYLQMNSLKQEDTAVYYCNADFYHRYDWGQGTQVSVSS | high polyreactivity |
| QVQLVESGGGLVQAGGSLRLSCAASGRTFRYNAMGWYRQAPGKERELVAAISRGANTNYADSVKGRFTISRDNAKNTVYLQMNSLKPADTAVYYCAAVPGYRFYYWGQGTQVTVSS | high polyreactivity |
| QVQLVESGGGLVQAGGSLRLSCAASGRTFRYNAMGWYRQAPGKERELVAAISRGANTNYADSVKGRFTISRDNAKNTVYLQMNSLKPEDTAVYYCAAVPGYRFYYWGQGTQVTVSS | high polyreactivity |
| QVQLVESGGGLVQAGGSLRLSCAASGRTFRYNAMGWYRQAPGKERELVASIRRGGSTNYADSVKGRFTISRDNAKNTVYLQMNRLKPEDTAVYYCAAGGYYWGQGTQVTVSS | high polyreactivity |
| QVQLVESGGGLVQAGGSLRLSCAASGRTFRYNAMVWFRQAPGKERELVAAISSGDRTNYADSVKGRFTISRDNAKNTVYLQMNSLKPEDTAVYYCAAPTDSYYEFDYWGQGTQVTVSS | low polyreactivity |
| QVQLVESGGGLVQAGGSLRLSCAASGRTFRYNGMGWYRQAPGKERELVAAITLRDGRTYYADSVKGRITISRDNPKNTVNIQMNSLIPEHTAVYYCALEYWVVNAQGNDYWGQGTQVSVSS | high polyreactivity |
| QVQLVESGGGLVQAGGSLRLSCAASGRTFRYNTMGWYRQAPGKERELVAAITKGAASTYYADSVKGRFTISRDNAKNTVYLQMNSLKPEDTAVYYCNAVYSRIVTQKYWGQGTQVTVSS | high polyreactivity |
| QVQLVESGGGLVQAGGSLRLSCAASGRTFRYYAMGLYRQAPGKERELVAAIRSGGTTYYADSVKGRFTISRDNAKNTVYLQMNSLKPEDTAVYYCAADGGKGGIRFGYWGQGTQVTVSS | high polyreactivity |
| QVQLVESGGGLVQAGGSLRLSCAASGRTFRYYAMGWYRQAPGKEREFVAAITSRSSRTYYADSVKGRFTISRDNAKNTVYLQMNSLKPEDTAVYYCNADYRRYPEFDYWGQGTQVTVSS | high polyreactivity |
| QVQLVESGGGLVQAGGSLRLSCAASGRTFRYYAMGWYRQAPGKERELVAAISASGGSTFYADSVKGRFTISRDNAKNTVYLLMNSLKPEDTAVYYCAAYHYSVFPYKQYDYWGQGTQVTVSS | high polyreactivity |

Reference: the nanobody polyreactivity screen of Harvey et al. (2022)
